Test results as given in paper PMC10847778.

Assays:
[1] = molecular target: OhyA lacking helices α19 and α20 (OhyA(ΔHTH)), His-tagged (Staphylococcus aureus); test: mass photometry; OneMP mass photometer; final concentration 100 nM protein; dilute, equilibrium conditions
[2] = molecular target: OhyA lacking helices α19 and α20 (OhyA(ΔHTH)), His-tagged (Staphylococcus aureus); test: SEC-MALS; Superose 6 Increase 10/300 GL; 20 mM Tris, 200 mM NaCl, pH 7.6; 25 °C; protein at 2 mg/ml, 100 μl injected
[3] = molecular target: oleate hydratase (OhyA), recombinant full-length, His-tagged (Staphylococcus aureus); test: cryo-EM single-particle images (no structure solved); grids of OhyA prepared in the absence of detergent
[4] = molecular target: oleate hydratase (OhyA), recombinant full-length, His-tagged (Staphylococcus aureus); test: mass photometry; OneMP mass photometer; final concentration 100 nM protein; dilute, equilibrium conditions
[5] = molecular target: oleate hydratase (OhyA), recombinant full-length, His-tagged (Staphylococcus aureus); test: SEC-MALS; Superose 6 Increase 10/300 GL; 20 mM Tris, 200 mM NaCl, pH 7.6; 25 °C; protein at 2 mg/ml, 100 μl injected

Substance	percent dimer [1]	percent monomer [1]	percent dimer [2]	stoichiometry N [2]	stoichiometry N [3]	percent dimer [4]	stoichiometry N [4]	percent dimer [5]	stoichiometry N [5]
OhyA lacking helices α19 and α20 (OhyA(ΔHTH)), His-tagged (domain or fragment)	20%	75%	89.8%	2	–	–	–	–	–
oleate hydratase (OhyA), recombinant full-length, His-tagged (enzyme)	–	–	–	–	4	86%	2	84.6%	2
